The record followed here is patent US20200129582A1, “NOVEL PEPTIDES AND PEPTIDOMIMETICS” (UNIVERSITY OF AUCKLAND, priority 2016, published 2020).

Data set [1] concerns the target T1, coupled gap junction channels in hCMVEC cells (Homo sapiens, UniProt P17302).
T1 construct: A confluent monolayer of hCMVECs was pre-incubated in Peptide5; endogenous in cells; host or cells: hCMVEC
Type of data set: cell-based. The settings on record: hCMVEC, 100 μM, FIG. 5. As to the method: (§1) The hCMVEC cells were plated in 1 μg/cm^2 collagen I (Gibco) 12-well plate at a density of 0.4×10^6 cells per well, and cultured overnight. A confluent monolayer of hCMVECs was pre-incubated in Peptide5 (5-100 μM) dissolved in culture medium for 2 hours or 24 hours. CBX at a concentration of 100 μM was used as a positive control. Cells were washed three times with phosphate buffered saline (PBS) without Ca^2+ or Mg^2+. The cells were then incubated in 0.05% Lucifer Yellow (LY) (Sigma), a fluorescent dye that is transferred through coupled gap junction channels (el-Fouly et al., 1987, Experimental cell research 168:422-430), +/−Peptide5 dissolved in PBS, and scrape-wounded with a size 10 carbon steel surgical blade (Swann-Morton, England). Following 5-minute incubation at 37° C. in 95% O2 and 5% CO2 without light, the 0.05% LY solution was removed. Cells were rinsed four times with PBS with Ca^2+ or Mg^2+, and then fixed in 4% paraformaldehyde (PFA) in PBS at pH 7.4 for 10 minutes at room temperature. Cells were then washed 3 times in PBS to remove PFA before fluorescent imaging. Fluorescent images were visualised using a Nikon TE2000E inverted fluorescent microscope (10× magnification, 0.3 numerical aperture), and captured using a Digital Sight CCD camera and Eclipse Net software (Nikon). Three images within each well from three independent experiments were taken for analysis and the total number of cells showing dye uptake from those that had been loaded were counted manually by masked observers.
as §1, with “1987),” for “1987, Experimental cell research 168:422-430),”

Data set [2] deals with T2, hemichannel-mediated ATP release from hCMVEC cells (Homo sapiens, UniProt P17302).
T2 construct: endogenous in cells; host or cells: hCMVEC (human cerebral microvascular endothelial cells)
T2 sequence (P17302 2-382 limits assumed): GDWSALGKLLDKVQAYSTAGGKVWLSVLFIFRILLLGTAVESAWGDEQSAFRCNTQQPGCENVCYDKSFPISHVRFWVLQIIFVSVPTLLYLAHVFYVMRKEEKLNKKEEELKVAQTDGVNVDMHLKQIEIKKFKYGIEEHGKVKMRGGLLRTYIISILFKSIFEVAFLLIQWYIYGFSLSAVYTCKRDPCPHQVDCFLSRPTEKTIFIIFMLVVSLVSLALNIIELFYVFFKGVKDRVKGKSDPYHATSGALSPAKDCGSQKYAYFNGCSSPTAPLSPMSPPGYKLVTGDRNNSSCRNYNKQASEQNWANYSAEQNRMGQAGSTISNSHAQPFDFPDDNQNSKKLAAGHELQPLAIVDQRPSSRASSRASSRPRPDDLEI
Nature of the data set: In vitro ischemia injury ATP release assay (single alanine substituted and truncated peptides). Type of data set: cell-based. As to the method: The human cerebral endothelial cells (hCMVEC) were plated at a density of 0.025×10^6 cells per well in a collagen-coated 12-well plate (1 μg/cm^2) a day prior to the experiment. Cells were incubated in culture medium overnight. Hypoxic, acidic, ion-shifted Ringer injury solution that mimics ionic concentrations and acid-base shifts of the interstitial space in hypoxic-ischemic brains (Bondarenko and Chesler, 2001, […]) was used to trigger hemichannel opening. The injury solution contained (in mM): 38 NaCl, 13 NaHCO3, 3 Na-gluconate, 65 K-gluconate, 38 NMDG-Cl, 1 NaH2PO4, and 1.5 MgCl2. The injury solution was bubbled in 95% N2, 5% CO2 gas (20 L/min) for 5 minutes and pH adjusted to 6.6 before use. The standard ringer solution contained (in mM): 124 NaCl, 3 KCl, 26 NaHCO3, 26 NaHCO3, 1 NaH2PO4, 1.3 CaCl2, 1.5 MgCl2, and 10 Glucose, and pH adjusted to 7.4 before use (Bondarenko and Chesler, 2001). In the ischemia injury model, hCMVEC cells were incubated for 2 hours in 500 μL injury solution+/−Peptide5 (100 μM) (O'Carroll et al., 2008, Cell communication & adhesion 15:27-42; Danesh-Meyer et al., 2012, Brain: a journal of neurology 135:506-520; Davidson et al., 2012, Annals of neurology 71:121-132; Davidson et al., 2013, Experimental neurology 248:301-308; Davidson et al., 2014, PloS one 9:e96558; Davidson et al., 2015, J Cereb Blood Flow Metab), or +/−extracellular loop sequences (Table 5), or modified peptides (Table 2, 3) dissolved in injury solution (500 μL) with a final concentration of 100 μM. For negative control, hCMVEC cells were incubated only in 500 μL standard ringer solution for 2 hours. For positive control, hCMVEC cells were incubated only in 500 μL […] for 2 hours. All incubations were conducted at 37° C. in 95% O2 and 5% CO2. At the end of each experiment, samples were removed and immediately placed on ice. The concentration of ATP in the samples was determined using a Luciferin/luciferase bioluminescence reaction (ATP Determination Kit, Molecular Probes) and detected using a luminescence plate reader (VICTOR X, Perkin Elmer #2030-0010). Standard curves were generated in each experiment from an ATP standard (0 to 500 nM) to convert bioluminescence units to ATP concentration. […] The data is presented as mean±standard error relative to the injury or injury-reperfusion positive control. Statistically significant differences between samples were tested using one-way analysis of variance and Tukey's multiple comparisons test.
Peptides listed in table 5 and 2 were assessed using the ischemia injury model in hCMVEC cells as described above, and the medium was collected for ATP release measurement.
The human cerebral endothelial cells (hCMVEC) were plated at a density of 0.025×10^6 cells per well in a collagen-coated 12-well plate (1 μg/cm^2) a day prior to the experiment. Cells were incubated in culture medium overnight. Hypoxic, acidic, ion-shifted Ringer injury solution that mimics ionic concentrations and acid-base shifts of the interstitial space in hypoxic-ischemic brains (Bondarenko and Chesler, 2001) was used to trigger hemichannel opening. The injury solution contained (in mM): 38 NaCl, 13 NaHCO3, 3 Na-gluconate, 65 K-gluconate, 38 NMDG-Cl, 1 NaH2PO4, and 1.5 MgCl2. The injury solution was bubbled in 95% N2, 5% CO2 gas (20 L/min) for 5 minutes and pH adjusted to 6.6 before use. The standard ringer solution contained (in mM): 124 NaCl, 3 KCl, 26 NaHCO3, 26 NaHCO3, 1 NaH2PO4, 1.3 CaCl2, 1.5 MgCl2, and 10 Glucose, and pH adjusted to 7.4 before use (Bondarenko and Chesler, 2001).

Data set [3] concerns the target T3, Connexin43 plaques in ARPE-19 cells (Homo sapiens, UniProt P17302).
T3 construct: a cell line with high endogenous expression of connexin43; endogenous in cells; host or cells: ARPE-19
Nature of the data set: Immunocytochemistry and quantification of Cx43 plaques. Type of data set: cell-based. The settings on record: 2- or 6-hour treatment, Peptide5 50-500 μM, LaCl3 and CBX 500 μM. How it is done: (§2) ARPE-19 cells were grown until confluent in 8-well glass chamber-slides (BD Falcon). Confluent monolayers of ARPE-19 cells were incubated at a final concentration of 50 to 500 μM Peptide5, 500 μM LaCl3 and 500 μM CBX in culture medium for 2 or 6 hours. Cells were fixed in 4% PFA (ProSciTech) at pH 7.4 for 10 min at room temperature, permeabilized with 0.05% Triton-X100 in PBS, and incubated in 10% normal goat serum to block non-specific labelling. Cells were rinsed three times with PBS containing 0.1 mM CaCl2 between each fixation, permeabilization, and blocking steps. Connexin43 polyclonal rabbit antibody (C6219, Sigma, 1:2000) was applied overnight, followed by a goat anti-rabbit Alexa Fluor® 568 secondary antibody (Invitrogen, 1:200) for 45 minutes. Nuclei were counterstained with DAPI (Invitrogen) at 10,000-fold dilution for 5 mins, and mounted with Citifluor™ mounting medium. Images were visualised and captured using an oil immersion lens (60× magnification, 1.35 numerical aperture) on an Olympus FV1000 upright confocal laser scanning microscope and Olympus FV10-ASW 4.0 software. The Transfluor feature in MetaXpress® Image acquisition and analysis software (Version 5.3.0.1, Molecular Devices) was used to quantify the total area of Connexin43 plaques per image.
as §2

Another data set is described as follows: Solubility in miliQ H2O. Type of data set: physicochemical. How it is done:
For cell scrape load—dye coupling assays of gap junctions, induced protein distribution changes and ATP release studies of hemichannel block, Connexin43 mimetic peptide (Peptide5, sequence VDCFLSRPTEKT (SEQ ID NO: 45)) (Auspep, Australia) was synthesized at purity >95% and dissolved in miliQ H2O at a stock concentration of 10 mM. For competition assays extracellular loop matching peptides were custom synthesised and dissolved in miliQ H2O at a stock concentration of 1 mM according to purity supplied by the manufacturer (Auspep, Australia). For Peptide5 sequence substitution studies, peptides were generated in the School of Chemical Sciences, University of Auckland. The peptides were prepared using Fmoc solid phase synthesis. Fmoc-Thr(tBu)-OH or Fmoc-Ala-OH pre-loaded to the HMPP linker and attached to in-house prepared aminomethyl PS resin 2.1 (using DIC in DMF). This was followed by alternating de-protection and coupling reactions using 5% piperazine containing 0.1 M 6-Cl-HOBt and HBTU and NMM respectively via automated Tribute Fmoc-SPPS. Resin cleavage using TFA afforded crude products, which underwent purification via semi-preparative RP-HPLC. Peptides were obtained in high purity (>95%) and with good yields (17%-46%). All alanine substituted analogues were miliQ H2O soluble (Table 5).
Peptide5 interacting site on the Connexin43 protein was determined using a competition assay. […]

Residues, ends and D or L forms follow the SMILES beside them.

T3 sequence (P17302 2-382 limits assumed): as above

SRPTEKT [mod-3]: in data set [1] (2-hour exposure, untreated control 100±4.5%), the “LY dye transfer, % of the untreated control” value was found to be 77.6±4.8%. Also, the “LY dye transfer, comparison in words” value in data set [1] is “comparable to the native Peptide5”. In addition, in data set [2] (hCMVEC, 100 μM, FIG. 4), the “ATP release compared to injury control (in words)” value is “not significantly different to the injury control” and the “ATP release compared to native Peptide5 (in words)” value is given as “significantly greater ATP release”.

With RFKPSLCTTDEV [scrambled peptide], the “LY dye transfer, comparison in words” value in data set [1] is given as “no significant difference”.

Take `[Cl][La]([Cl])[Cl]` [LaCl3, Lanthanum chloride, reference compound]: the “Connexin43 labelling per cell compared to untreated control (in words)” value in data set [3] is reported as “not significantly different to the control”. The “ATP release, % of the injury control” value in data set [2] was 47.8±13.6%. In addition, the “ATP release compared to injury control (in words)” value in data set [2] (hCMVEC, 100 μM, FIG. 3) is given as “significantly reduced ATP release”.

Consider `CC[C@H](C)[C@H](NC(=O)[C@H](Cc1ccc(O)cc1)NC(=O)[C@H](Cc1c[nH]c2ccccc12)NC(=O)[C@H](CCC(N)=O)NC(=O)[C@@H](NC(=O)[C@H](CC(C)C)NC(=O)[C@H](CC(C)C)NC(=O)[C@@H](N)Cc1ccccc1)[C@@H](C)CC)C(=O)N[C@@H](Cc1ccc(O)cc1)C(=O)NCC(=O)N[C@@H](Cc1ccccc1)C(=O)N[C@@H](CO)C(=O)N[C@@H](CC(C)C)C(=O)N[C@@H](CO)C(=O)N[C@@H](C)C(=O)N[C@H](C(=O)N[C@@H](Cc1ccc(O)cc1)C(=O)N[C@H](C(=O)N[C@@H](CS)C(=O)O)[C@@H](C)O)C(C)C` [EL2a, FLLIQ WYIYG FSLSA VYTC] (H-FLLIQWYIYGFSLSAVYTC-OH; N-terminus and C-terminus assumed), for which the “solubility in miliQ H2O” value in the data set “Solubility in miliQ H2O” is on record as “soluble in miliQ H2O except for the EL2a sequence”.
